This experiment has as its target T1, Interferon regulatory factor 3 (human (endogenous in A375)), Q14653.
T1 chain: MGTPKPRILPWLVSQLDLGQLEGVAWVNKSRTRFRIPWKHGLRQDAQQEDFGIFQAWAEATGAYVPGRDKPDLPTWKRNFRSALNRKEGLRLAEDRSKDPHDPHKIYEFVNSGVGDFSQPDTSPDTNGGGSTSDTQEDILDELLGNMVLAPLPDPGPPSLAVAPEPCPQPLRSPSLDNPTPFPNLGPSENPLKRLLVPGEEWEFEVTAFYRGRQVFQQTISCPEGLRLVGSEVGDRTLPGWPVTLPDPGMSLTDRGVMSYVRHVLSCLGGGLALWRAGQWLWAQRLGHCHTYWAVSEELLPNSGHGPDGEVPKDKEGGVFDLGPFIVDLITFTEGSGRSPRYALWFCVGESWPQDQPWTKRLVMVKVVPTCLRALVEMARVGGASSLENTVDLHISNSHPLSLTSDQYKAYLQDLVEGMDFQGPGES
As to the kind of experiment: cross-linking; covalent cross-link formed in cells (TG2-dependent), seen by Western blot of SDS-polyacrylamide gels under denaturing conditions; A375 cells treated with doxorubicin 5 μM for 6, 16 and 24 h; HeLa cells too. Particulars: remark: other sources report otherwise.

Our source for the stoichiometry N values is publication PMC9792452.

B1: Interferon regulatory factor 3, Q14653 1-427 (natural protein)
chain: T1 chain
Consider B1, for which the stoichiometry N is 2.
